For test [1], the target named is T1, recombinant cynomolgus MerTK extracellular domain (cynomolgus, UniProt Q12866 21-505 (human entry)).
T1 construct: also called cyno MerTK ECD; not shown: polyHis or TEVS/Thrombin/murine IgG2a-Fc tag
T1 chain: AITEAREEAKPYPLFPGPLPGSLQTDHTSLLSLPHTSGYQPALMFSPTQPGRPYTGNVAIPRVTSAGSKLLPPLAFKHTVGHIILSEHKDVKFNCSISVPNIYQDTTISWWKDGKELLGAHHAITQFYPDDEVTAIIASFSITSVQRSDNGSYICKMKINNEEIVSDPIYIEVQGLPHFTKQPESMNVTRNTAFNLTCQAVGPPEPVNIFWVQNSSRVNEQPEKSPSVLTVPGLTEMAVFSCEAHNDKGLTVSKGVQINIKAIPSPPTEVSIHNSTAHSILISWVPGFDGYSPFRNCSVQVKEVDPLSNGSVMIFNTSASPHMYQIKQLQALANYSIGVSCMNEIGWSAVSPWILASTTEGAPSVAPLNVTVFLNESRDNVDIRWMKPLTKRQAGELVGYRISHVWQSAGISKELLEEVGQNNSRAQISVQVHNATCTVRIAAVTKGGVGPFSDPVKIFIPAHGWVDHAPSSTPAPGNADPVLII
The test is described as follows: SPR Carterra LSA. The method, then:
Binding kinetics of anti-MerTK IgG1 antibodies of the present disclosure to human, cyno, and murine MerTK were evaluated using a Carterra LSA instrument (Carterra, Salt Lake City, UT). […] A HC200M sensor chip (Carterra) was activated using the single channel flow cell with a 7-minute injection of a 1:1:1 mixture of 100 mM MES pH 5.5, 100 mM sulfo-NHS, 400 mM EDC (all reconstituted in MES pH 5.5; 100 μl of each mixed in vial immediately before running assay). After switching to the multi-channel array flow cell, the antibodies were injected over the activated chip in three 96-spot arrays for 10 minutes each. The remaining unconjugated active groups on the chip were then blocked by injecting 1M Ethanolamine pH 8.5 (Carterra) for 7 minutes using the single channel flow cell. The resulting sensor chip contained three spots for each antibody, at three different densities. Two independent experiments were performed as follows, resulting in an N of between one and six determinations for each antibody. Spots that yielded less than 25 RU of analyte binding were excluded from further analysis.
After priming with running buffer (HBS-TE, Carterra) with 0.5 mg/ml BSA (Sigma), the immobilized anti-MerTK antibodies were tested for their ability to bind to several forms of recombinant MerTK extracellular domain, including human, cynomolgus, and mouse orthologs as described above. Estimates of affinity were generated by injecting each analyte over the entire antibody array using the single channel flow cell. MerTK analytes were diluted with running buffer, in a series of six, three-fold serial dilutions starting from 1 μM for human and cynomolgus MerTK, and 600 nM for mouse MerTK. Analytes were injected for 5 minutes, and dissociation was followed for 10 minutes. After each analyte injection, antibodies were regenerated with either Protein A/G Elution Buffer (Thermo) with 1M NaCl (Teknova), or with 10 mM Glycine pH 2.5. Three buffer blanks were run between each series (one species per series). Data were processed and analyzed using NextGenKIT high-throughput kinetics analysis software (Carterra).

Test [2] concerns the target T2, recombinant human MerTK extracellular domain (human, UniProt Q12866 21-505).
T2 construct: also called human MerTK ECD; not shown: polyHis or TEVS/Thrombin/murine IgG2a-Fc tag
T2 sequence: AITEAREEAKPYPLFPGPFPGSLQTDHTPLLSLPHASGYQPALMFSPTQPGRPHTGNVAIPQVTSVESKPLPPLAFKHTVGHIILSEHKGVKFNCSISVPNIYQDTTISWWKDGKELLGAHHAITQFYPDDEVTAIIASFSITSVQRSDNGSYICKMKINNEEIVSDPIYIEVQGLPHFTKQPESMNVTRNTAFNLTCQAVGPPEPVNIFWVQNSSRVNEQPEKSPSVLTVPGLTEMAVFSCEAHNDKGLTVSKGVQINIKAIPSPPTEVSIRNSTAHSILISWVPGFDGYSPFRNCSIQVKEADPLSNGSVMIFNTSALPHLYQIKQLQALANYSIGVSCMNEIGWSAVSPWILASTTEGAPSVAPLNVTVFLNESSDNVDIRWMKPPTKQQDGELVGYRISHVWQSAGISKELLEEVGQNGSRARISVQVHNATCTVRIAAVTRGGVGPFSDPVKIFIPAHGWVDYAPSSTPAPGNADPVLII
The test is described as follows: SPR Carterra LSA, Ab immobilised. The gist of the method: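 Surface plasmon resonance on a Carterra LSA measured affinity of immobilized antibodies for human, cynomolgus or mouse MerTK ectodomain diluted in HBS-TE with 0.5 mg/ml BSA. Analytes flowed over the full array, surfaces were regenerated with Protein A/G Elution Buffer plus 1M NaCl or 10 mM Glycine pH 2.5, and spots binding under 25 RU were discarded before kinetic fitting.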

The target in test [3] is T3, MerTK N-terminal ECD Half-and-half chimera (human).
T3 construct: tested as culture supernatant; also called MerTK N-term half-and-half chimera; MerTK N-terminal ECD (NT-Ig1-Ig2) + Axl C-terminal ECD (FN1-FN2-JM)
T3 chain: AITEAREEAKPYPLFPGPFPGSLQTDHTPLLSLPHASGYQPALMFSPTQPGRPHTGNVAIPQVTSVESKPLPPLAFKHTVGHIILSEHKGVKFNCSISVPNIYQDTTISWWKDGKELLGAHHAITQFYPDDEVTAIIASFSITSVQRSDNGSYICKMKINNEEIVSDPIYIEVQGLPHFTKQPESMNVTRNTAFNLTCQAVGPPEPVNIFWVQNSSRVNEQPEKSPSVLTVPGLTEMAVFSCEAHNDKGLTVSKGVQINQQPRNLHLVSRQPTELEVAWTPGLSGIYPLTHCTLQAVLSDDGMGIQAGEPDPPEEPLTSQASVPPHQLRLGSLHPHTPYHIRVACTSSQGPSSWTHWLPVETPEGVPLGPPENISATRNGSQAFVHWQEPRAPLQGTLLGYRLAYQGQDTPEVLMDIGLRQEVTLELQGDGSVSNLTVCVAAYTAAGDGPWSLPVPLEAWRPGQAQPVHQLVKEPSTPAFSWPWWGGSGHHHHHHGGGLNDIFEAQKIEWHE
The test can be described thus: SPR, construct supernatant over immobilised Ab. The method, then:
Binding of anti-MerTK antibodies of the present disclosure to these domain-swapped chimera or deletion mutants was tested by Surface Plasmon Resonance (SPR) using Carterra LSA. Purified anti-MerTK antibodies were immobilized in duplicate on a HC30M chip (Carterra) by amine coupling, following the manufacturer's instructions (described previously).
Supernatants containing the constructs were diluted 1:1 with running buffer containing 0.5 mg/mL BSA (HBS-TE, Carterra; BSA, Sigma) and injected over the immobilized antibodies. The surface was regenerated with 10 mM Glycine pH2.0 after each construct injection. Sensorgrams were analyzed using Carterra Epitope software to identify patterns of construct binding. Loss of binding to MerTK constructs with domains deleted or swapped in from Axl and/or gain of binding to Axl constructs with MerTK domains swapped in were evaluated. Data from these studies were used to construct a domain binding map for anti-MerTK antibodies and their binding to various domains of human MerTK.
Background: In SPR one partner is held on a chip, and binding of the other changes the refractive index at the surface.

B1: MTK-219 (antibody, human IgG1, V domains shown)
VH: QVQLQQSGADLMKPGASVKLSCKATGNTFTGYWIEWVKQRPGHGLEWIGEILTGSGSTNYNERFKGKATFTADTSSNTAYMQLSSLTTEDSAIYYCAGSYFTNSWFPYWGQGSLVTVSA
VL: DIVLTQSPASLAVSLGQRATISCRASESVDSYGNSFMHWYQQKPGQPPKLLIYRAYTLESGIPARFSGSGSRTDFTLTINPVEADDVATYYCQQSNEDPRTFGGGTKLEIK
For the molecule B1, the “Ratio of KD for Cynomolgus vs Human MerTK” value (“Ratio of KD for Cynomolgus” for short) in test [1] worked out at 1.9 ratio. In addition, in test [2], the Kd is 440 nM. For the same molecule, in test [3], the binding result was “no binding”.

B2: MTK-222 (antibody, human IgG1, V domains shown)
VH: QVQLQQSGADLMKPGASVKLSCKATGYTFTGYWIEWVKQRPGHGLEWIGEILTGSGSSNYNEKFKGKATFTADSSSNTAFMQLSSLTTEDSAIYYCAGSYYSNSWFPYWGQGSLVTVSA
VL: DIVLTQSPVSLAVSLGQRATISCRASESVDSYGSSFMHWYQQKPGQPPKLLIYRASSLESGIPARFSGSGSRTDFTLTINPVETDDVATYYCQQSNEDPRTFGGGTKLEIK
As to B2, the “Ratio of KD for Cynomolgus” value in test [1] amounted to 1 ratio. Also, the Kd in test [2] is 130 nM. In test [3], the binding result was “no binding”.

B3: MTK-229 (antibody, human IgG1, V domains shown)
VH: QVQLQQSGPELVKPGASVKISCKASGYEFSRSWMNWVKQRPGKGLEWIGRIYPGDGDTNYKGKLKGQATLTADKSSSTAYMQLSSLTFEDSAVYFCARGGGYYYDSRYEGFVYWGQGTVVTVSA
VL: QIVLTQSPAIMSASPGEEVTMTCSASSSVSYMHWYQQKSGTSPKRWIYDTSKLASGVSGRFSGSGSGTSYSLTISSMEAEDAATYYCQQWSSNPPITFGAGTKLELK
With B3, the “Ratio of KD for Cynomolgus” value in test [1] was determined as 2.9 ratio. Also, in test [2], the Kd is 18 nM. The binding result in test [3] was “no binding”.

B4: MTK-212 (antibody, human IgG1, V domains shown)
VH: QVQLQQSGPELVKPGASVKISCKASGYAFSSSWVNWVKQRPGKGLEWIGRIYPGDGDSNYNGNFKGKATLTADKSSNTAYLQLSSLTSEDSAVYFCARKSHFIYYTLDYWGQGTPVTVSS
VL: DIVMTQSHKFKSTSVGDRVSIACKASQDVGTSVAWYQQKPGKSPKLLIYWASSRHTGVPDRFTGSGSGTDFTLTISNVQSEDLTDYFCQQYSTYPYTFGGGTKLEIK
For B4, in test [1], the “Ratio of KD for Cynomolgus” value is 18.3 ratio. Moreover, in test [2], the equilibrium dissociation constant (Kd) stood at 82 nM. Further, in test [3], the binding result is recorded as “no binding”.

B5: MTK-206 (antibody, human IgG1, V domains shown)
VH: QVQLQQSGAELARPGASVKMSCKASGYTFTSYTMHWVKQRPGQGLEWIGYINPSSGYIKNSQKFKDKATLTADKSSSTAYMQLSSLTSEDSAVYYCARTVYGYYGSSPDYWGQGTTLTVSS
VL: DIQMTQSPSSLSASLGERVSLTCRASQDIGSNLNWLQQEPDGTIKRLIYATSSLESGVPKRFSGSRSGSDYSLTISSLESEDFVDYYCLQYDSSPWTFGGGTKLEIK
As for B5, in test [1], the “Ratio of KD for Cynomolgus” value worked out at 24.7 ratio. Also, the equilibrium dissociation constant (Kd) in test [2] amounted to 150 nM. In addition, the binding result in test [3] is “no binding”.

B6: MTK-210 (antibody, human IgG1, V domains shown)
VH: QVQLQQSGPELVKPGASVKISCKASDYEFSRSWMNWVKQRPGKGLEWIGRIYPGDGDTNYNGKFKGKATLTADKSSNTAYMQLNSLTSEDSAVYFCARKGGYYYSISNYFDYWGQGTTLTVSS
VL: QIVLTQSPAIMSASPGVKVTMTCSASSSVSYMHWYQQKPGSSPRLLIYDTSNLASGVPVRFSGSGSGTSYSLTISRMEAEDAATYYCQQWSSYPPYTFGGGTKLEIK
As to B6, the “Ratio of KD for Cynomolgus” value in test [1] amounted to 1.2 ratio. In test [2], the Kd was determined as 31 nM. In test [3], the binding result is recorded as “no binding”.

By Kd is commonly meant the constant that tells how readily two partners part at equilibrium.
